Results on one molecule are retold here after article PMC12561426, “Dissecting the Interplay Between NRF2 and BACH1 at CsMBEs”.

One series concerns the target BACH1DBD (UniProt O14867 511-627). The series is described as follows: EMSA; apparent; homodimer concentration; 150 mM NaCl, 50 mM HEPES pH 7.9, 10% glycerol, 1 mM TCEP, 1 mM DTT, 2 mM MgCl2; 3 nM DNA; TEV and 3C 50 ug/mL each, 4 h 25 °C; competition then O/N 4 °C; gels 4 °C in 1X TBE. Conditions: protein: recombinant; tags: C-terminal 3C-6xHis; chain copies: 2; label: 5' fluorescein on forward strand; blunt. On the technique in general: A gel shift assay detects complexes by their altered migration in electrophoresis.

Another series has as its target T1, NRF2DBD (UniProt Q16236 451-567).
T1 sequence: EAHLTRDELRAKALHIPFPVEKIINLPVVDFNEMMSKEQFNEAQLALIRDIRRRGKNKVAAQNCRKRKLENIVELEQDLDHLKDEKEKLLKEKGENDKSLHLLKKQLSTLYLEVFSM
The experiment in a line: EMSA; apparent; homodimer; 150 mM NaCl, 50 mM HEPES pH 7.9, 10% glycerol, 1 mM TCEP, 1 mM DTT, 2 mM MgCl2; 3 nM DNA; TEV and 3C 50 ug/mL each, 4 h 25 °C; competition then O/N 4 °C; gels 4 °C in 1X TBE. Conditions: protein: recombinant; tags: C-terminal 3C-6xHis; chain copies: 2; label: 5' fluorescein on forward strand; blunt.

In the next series the target is sMafGDBD (UniProt O15525 1-162). Described as above. Conditions: protein: recombinant; tags: N-terminal 6xHis-TEV; chain copies: 2; label: 5' fluorescein on forward strand; blunt.

Sequence of BACH1DBD (O14867 511-627): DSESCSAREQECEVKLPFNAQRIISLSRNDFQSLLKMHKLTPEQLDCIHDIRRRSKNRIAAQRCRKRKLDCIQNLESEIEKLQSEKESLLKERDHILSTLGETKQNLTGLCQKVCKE

B1: HMOX1 CsMBE 30-mer (dsDNA)
DNA 1: CTCGGGACCGTGACTCAGCAGGAAAAACAC
DNA 2: GTGTTTTTCCTGCTGAGTCACGGTCCCGAG
For the molecule B1, the Kd is around 802 nM with BACH1DBD, around 590 nM with NRF2DBD and around 203 nM in the series with sMafGDBD.
